# From the supplement of paper PMC7877785
# ± gives the uncertainty stated by the source.
# Assay: self-splicing fitness, log relative to wild type (ln ratio); higher = more splicing; Tetrahymena group I intron in knt gene, E. coli kanamycin selection, DiMSum; sequences stand for … in CUCUCU…GGAGGGAAAAGUUAUCAGGCAUGCACCUGGUAGCUAGUCUUUAAACCAAUAGAUUGCAUCGGUUUAAAAGGCAAGACCGUCAAAUUGCGGGAAAGGGGUCAACAGCCGUUCAGUACCAAGUCUCAGGGGAAACUUUGAGAUGGCCUUGCAAAGGGUAUGGUAAUAAGCUGACGGACAUGGUCCUAACCACGCAGCCAAGUCCUAAGUCAACAGAUCUUCUGUUGAUAUGGAUGCAGUUCACAGACUAAAUGUCGGUCGGGGAAGAUGUAUUCUUCUCAUAAGAUAUAGUCGGACCUCUCCUUAAUGGGAGCUAGCGGAUGAAGUGAUGCAACACUGGAGCCGCUGGGAACUAAUUUGUAUGCGAAAGUAUAUUGAUUAGUUUUGGAGUACUCGUGGUCG
# Method in brief: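 DiMSum derived fitness as the error-weighted combination of fold changes across replicates, kanamycin versus no kanamycin, normalised to wild type. E. coli BL21(DE3) held the library, which randomised all eight P1ex-region intron nucleotides within the knt kanamycin-resistance gene on pET-22b(+). Six replicate transformations grew overnight at 37°C or 30°C on LB agar with or without 25 μg/mL kanamycin, also containing 100 μg/mL carbenicillin, 50 μM IPTG and 0.2% rhamnose, and pooled colonies were amplicon-sequenced on an Illumina HiSeq 2500.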
Sequence,self-splicing fitness (ln) (30 °C),self-splicing fitness (ln) (37 °C)
UAAUAGCAAUAUUACGGACA,-1.12 ± 0.17,-0.393 ± 0.16
CUUCAGCAAUAUUACGUCCG,-0.583 ± 0.056,-0.437 ± 0.09
AAUAAGCAAUAUUACGUAAU,-1.38 ± 0.1,-0.587 ± 0.13
UGUUAGCAAUAUUACGGGGA,-2.84 ± 0.22,-2.2 ± 0.19
UGCAAGCAAUAUUACGGUUG,-2.49 ± 0.11,-1.88 ± 0.13
ACCUAGCAAUAUUACGUCUG,-2.84 ± 0.2,-2.03 ± 0.15
GCGCAGCAAUAUUACGUUAG,-4.26 ± 0.2,-2.26 ± 0.18
GCAUAGCAAUAUUACGCGUU,-2.03 ± 0.11,-2.14 ± 0.17
AGCAAGCAAUAUUACGCAAC,-3.99 ± 0.31,–
GUUCAGCAAUAUUACGUCAU,-0.56 ± 0.083,-0.0298 ± 0.09
CUAAAGCAAUAUUACGUUGU,-3.91 ± 0.12,-3.06 ± 0.15
CGGGAGCAAUAUUACGCGCG,–,-0.901 ± 0.27
CAGCAGCAAUAUUACGCUGC,-3.06 ± 0.22,-2.36 ± 0.2
CACAAGCAAUAUUACGAUCU,-2.56 ± 0.09,-2.85 ± 0.13
GUACAGCAAUAUUACGGUGC,-3.12 ± 0.15,-2.22 ± 0.18
UCCUAGCAAUAUUACGGGAU,-4.1 ± 0.22,-2.18 ± 0.17
ACCGAGCAAUAUUACGGAUC,-3.86 ± 0.26,-1.95 ± 0.2
GGUAAGCAAUAUUACGGGGC,-3.8 ± 0.32,-2.09 ± 0.31
CGUAAGCAAUAUUACGACGG,0.0203 ± 0.061,-0.0967 ± 0.082
UAUAAGCAAUAUUACGGAUG,-0.677 ± 0.055,-0.286 ± 0.083
AAGAAGCAAUAUUACGGAUC,-1.23 ± 0.11,0.142 ± 0.17
CGGUAGCAAUAUUACGGCGC,-2.04 ± 0.23,-1.95 ± 0.24
CGUAAGCAAUAUUACGGCUG,-0.231 ± 0.062,-0.177 ± 0.095
UCCUAGCAAUAUUACGGAGC,-3.26 ± 0.29,-1.98 ± 0.18
GCCGAGCAAUAUUACGGAAG,-2.65 ± 0.23,-0.897 ± 0.15

Sequence,self-splicing fitness (ln) (30 °C),self-splicing fitness (ln) (37 °C)
GCCCAGCAAUAUUACGUACG,-3.98 ± 0.37,-1.41 ± 0.18
GUCUAGCAAUAUUACGGUUU,-1.42 ± 0.077,-0.192 ± 0.095
UCUAAGCAAUAUUACGCCCA,-1.48 ± 0.15,-0.486 ± 0.17
AAUAAGCAAUAUUACGUCUG,-1.59 ± 0.11,-0.973 ± 0.11
ACGCAGCAAUAUUACGGAGC,–,-2.47 ± 0.26
CUUUAGCAAUAUUACGGGGU,-3.02 ± 0.24,-2.94 ± 0.27
GGAAAGCAAUAUUACGGAUG,-2.54 ± 0.17,-2.18 ± 0.21
ACAUAGCAAUAUUACGAAUC,-3.23 ± 0.2,-2.78 ± 0.28
UUAAAGCAAUAUUACGGCAC,-1.19 ± 0.1,-0.195 ± 0.13
UAUGAGCAAUAUUACGAUGA,-1.41 ± 0.12,-1.68 ± 0.16
UAAAAGCAAUAUUACGUUGU,-3.71 ± 0.14,-1.96 ± 0.14
GGUAAGCAAUAUUACGCGGA,-0.857 ± 0.18,-2.25 ± 0.2
GUAGAGCAAUAUUACGCUCC,-1.72 ± 0.36,–
CAUCAGCAAUAUUACGCCUA,-1.55 ± 0.1,-1.03 ± 0.1
ACACAGCAAUAUUACGUCGU,-2.67 ± 0.11,-1.58 ± 0.12
AGCUAGCAAUAUUACGAUCC,0.0246 ± 0.14,0.559 ± 0.16
UAAAAGCAAUAUUACGUGUA,-1.86 ± 0.055,-0.743 ± 0.056
UGUUAGCAAUAUUACGGUCC,-2.6 ± 0.38,–
CGAAAGCAAUAUUACGCAUG,-1.56 ± 0.1,-0.368 ± 0.11
CAGGAGCAAUAUUACGCCGG,–,-2.22 ± 0.24
UUUGAGCAAUAUUACGGCAG,-1.6 ± 0.17,-1.56 ± 0.21
GCCUAGCAAUAUUACGAACU,-1.67 ± 0.23,-0.772 ± 0.23
UGGCAGCAAUAUUACGGGAC,-2.88 ± 0.45,-2.37 ± 0.49
GCAUAGCAAUAUUACGGUCA,-0.966 ± 0.09,-0.953 ± 0.096
CGUCAGCAAUAUUACGUUCU,-1.39 ± 0.098,-0.462 ± 0.11

Sequence,self-splicing fitness (ln) (30 °C),self-splicing fitness (ln) (37 °C)
AGGCAGCAAUAUUACGGUCC,-1.61 ± 0.15,-1.64 ± 0.26
UUAAAGCAAUAUUACGGCCA,-0.086 ± 0.13,-0.188 ± 0.17
GUUGAGCAAUAUUACGGUCU,-3.49 ± 0.21,-2.56 ± 0.18
GCUUAGCAAUAUUACGAUUC,-0.128 ± 0.12,0.0621 ± 0.13
CAUCAGCAAUAUUACGGACA,-0.235 ± 0.21,-1.16 ± 0.15
CAGAAGCAAUAUUACGGAUC,-1.26 ± 0.11,-2.62 ± 0.17
UAACAGCAAUAUUACGGGGG,-3.25 ± 0.27,-1.9 ± 0.17
AGUUAGCAAUAUUACGCUUU,-2.56 ± 0.13,-1.09 ± 0.13
CGGUAGCAAUAUUACGCGGA,-2.54 ± 0.12,-1.26 ± 0.097
CCGGAGCAAUAUUACGAACC,–,-1.97 ± 0.41
UUAUAGCAAUAUUACGUCAA,-1.61 ± 0.26,-0.961 ± 0.22
UAGCAGCAAUAUUACGUUUA,-1.26 ± 0.067,-0.291 ± 0.078
UAGGAGCAAUAUUACGAGGC,-2.87 ± 0.17,-3 ± 0.29
AGUAAGCAAUAUUACGUUGU,-3 ± 0.099,-1.97 ± 0.12
CUUCAGCAAUAUUACGGGAC,-2.8 ± 0.11,-0.836 ± 0.12
GAUGAGCAAUAUUACGAACU,-0.431 ± 0.31,-0.239 ± 0.31
UGGGAGCAAUAUUACGAUUC,-4.38 ± 0.27,-2.41 ± 0.21
AGUCAGCAAUAUUACGCGAA,-1.21 ± 0.17,-0.704 ± 0.15
UGUCAGCAAUAUUACGGCCG,-0.69 ± 0.14,-0.658 ± 0.17
UUCCAGCAAUAUUACGGAAC,–,-3.19 ± 0.4
GAUUAGCAAUAUUACGUAUU,-3 ± 0.12,-1.65 ± 0.1
CUGCAGCAAUAUUACGUAAA,-3.28 ± 0.14,-1.19 ± 0.14
CAAAAGCAAUAUUACGCAAG,-1.52 ± 0.12,0.0344 ± 0.12
UGAAAGCAAUAUUACGUGGA,-2.89 ± 0.15,-2.69 ± 0.18
CCGGAGCAAUAUUACGGCAA,-1.63 ± 0.22,-2.48 ± 0.31

Sequence,self-splicing fitness (ln) (30 °C),self-splicing fitness (ln) (37 °C)
GUGCAGCAAUAUUACGUACU,-2.7 ± 0.39,-0.869 ± 0.38
AGAUAGCAAUAUUACGUUCC,-1.62 ± 0.2,-1.48 ± 0.23
CUUUAGCAAUAUUACGCAAC,-1.73 ± 0.24,–
GGAUAGCAAUAUUACGAUGU,-0.882 ± 0.084,-0.0369 ± 0.11
UCGGAGCAAUAUUACGCCUU,-2.96 ± 0.29,-2.92 ± 0.43
UUAGAGCAAUAUUACGAGUG,-3.12 ± 0.16,-1.53 ± 0.13
GAAAAGCAAUAUUACGCAUG,-1.12 ± 0.079,-0.337 ± 0.1
UUAUAGCAAUAUUACGGUAC,-2.88 ± 0.28,-2.45 ± 0.41
ACUGAGCAAUAUUACGUCCA,-3.1 ± 0.36,-2 ± 0.4
CUCCAGCAAUAUUACGCCUG,-3.25 ± 0.21,-2.71 ± 0.27
ACAAAGCAAUAUUACGGUUU,-1.71 ± 0.076,-0.493 ± 0.083
CAACAGCAAUAUUACGAUAA,-2.08 ± 0.1,-1.67 ± 0.11
CGAUAGCAAUAUUACGAACU,-0.913 ± 0.097,-0.465 ± 0.13
CACUAGCAAUAUUACGUCAU,-5.15 ± 0.41,-2.79 ± 0.23
UUUAAGCAAUAUUACGCUCU,-1.26 ± 0.098,-0.539 ± 0.11
GCCGAGCAAUAUUACGUUCA,-1.03 ± 0.11,-0.854 ± 0.14
CAUUAGCAAUAUUACGGACA,-2.45 ± 0.22,-1.22 ± 0.18
UUAGAGCAAUAUUACGGCGG,-0.922 ± 0.14,0.0643 ± 0.2
AUUCAGCAAUAUUACGCUGA,-3.06 ± 0.28,-2.6 ± 0.26
ACGAAGCAAUAUUACGUAUA,-2.5 ± 0.12,-2.16 ± 0.12
UAGCAGCAAUAUUACGAUGG,-1.6 ± 0.063,-0.933 ± 0.073
GAUGAGCAAUAUUACGUCCU,–,-1.84 ± 0.49
GAGUAGCAAUAUUACGCUAG,-2.38 ± 0.18,-0.481 ± 0.18
